Our source for the Kd values is paper PMC9170038.

B1: Eterna 7627109 (Same State - Theophylline A) (ssRNA)
RNA: CUCCGAGGCUAUACUAUCCGCCUCUGUGAUACCAGAAUACCUAUAUUCCCUUGGCAGCAUCACAUGAGGAUCACCCAUGUGCCAU
B2: Eterna 7708077 (Same State - FMN A) (ssRNA)
RNA: UUUUACGAGUGAUGUUCGUAAUGUAAUAGUUAGGAUAUCGUUUUUUCGAGAAGGAACUUCGAAGUGAUACGAAAGUAUCGCUUCG
B3: Eterna 7712973 (Exclusion - Theophylline A) (ssRNA)
RNA: AGACCUCAGUGAUGUUGAGGUAACACUGAUACCAGCGACUUAAUUCGCCCUUGGCAGCAGUCCACCGAGGUAUCUGAUUAGGUCA
B4: Eterna 7637577 (Same State - Tryptophan B) (ssRNA)
RNA: GUAGCUAUCGCGGCCGCCACUAAACCGGAAACGGAACAGGAGGAUCACCCUUGUGGCGAAAGCCAUAGGACCGGGCGAUAGCUAC
B5: Eterna 7729660 (Same State - Arginine B) (ssRNA)
RNA: ACGAAGGAUGGAAGGAGCGCUCGUCAGUCCUGCGAGUGAUGUUCGUGGGUAAAUAGUCGCGAGCAGGUAGGUCGCCAUCUUGAGC
B6: Eterna 7687680 (Same State - Theophylline A) (ssRNA)
RNA: AUUGAUAUAUAUAUUUGAUUUUUAUGUGAUACCAGACAAGGCAUAGUCCCUUGGCAGCACUUUAUAUUUACGAGUGAUGUUCGUA
B7: Eterna 7690543 (Exclusion - Theophylline B) (ssRNA)
RNA: AUUUAAUUAACUGAUACCAGACUUUAUGUAUUUAUUAAAACUAGUGAUGUUAGUUUAUCUGUCCCUUGGCAGCAGUUUCUACUUA
B8: Eterna 7729929 (Exclusion - Tryptophan B) (ssRNA)
RNA: GGAUAGGACACGGCCGCCACUAGCUAGGAUACUAGCAACAUUUCCUCAUCUGAGGAUCACCCAGGUAGGACCGGGUGUCCUAUCG
B9: Eterna 7710839 (Same State - Theophylline A) (ssRNA)
RNA: UAAUAAAUAAAUCCAAGGUGAAGGUCAGAUACCAGCCAGAUAACUGGCCCUUGGCAGCUGAAUAAGCUUGAGGAUCACCCAAGUA
B10: Eterna 7690461 (Exclusion - Theophylline A) (ssRNA)
RNA: UAAUUUAUGUCUUUAAUAUAAUAAUCAGAUACCAGUGAUUUAUGACACCCUUGGCAGCUGUAUAGAGUGAUGUUCUUAUACAUAA
B11: Eterna 7691153 (Same State - Arginine B) (ssRNA)
RNA: AAUGCAUAGUGAAGGAGCGCGAUUUGCAGUGAUGUUGCAAAUUUAAACAAUCUUAUCUUUUCGCAGGUAGGUCGCACUAUGCAUA
B12: Eterna 6424838 (Exclusion NG 2) (ssRNA)
RNA: GCCGGUUCCCUAGGAUAUGUACAUGAGGAUCACCCAUGUGCCUCUAGAGCCGGAACAGGGCAUGUACAGAAGGAGGGUCGACCC
B13: Eterna 11587 (Sensor for hsa-mir-208a) (ssRNA)
RNA: AUUUAACAAGCUUUUUGCUCGUCUUAUAAACAUGAGGAUCACCCAUGUAAUAGCGUGAGAGUAAAUAAUUUAAUAAU
B14: Eterna 6457182 (Inverted Small Loop Same State NG 1) (ssRNA)
RNA: CGUCUAUGCAAGAAGGCAUGAAACAUGAGGAUCACCCAUGUCAAAGACAUGAGGAUAUUGCAUAGACGAAAAGUGCGAAAGCAC
B15: Eterna 15621 (Same State 1) (ssRNA)
RNA: GCAUCACAUGAGGAUCACCCAUGUCUUCGGAGCGGAGGAUAUGGUCACUGUAAACAGUGGCCAGAAGGCUGGAUGC
B16: Eterna 6456627 (Same State NG 3) (ssRNA)
RNA: GCGCCUCAGAACAUGAGGAUCACCCAUGUGCUGCGGGCGCCGUAGGAUAUGAUGGUACGCUACCAUCAGAAGGAUGAUGGUACC
B17: Eterna 7765403 (Exclusion - FMN A) (ssRNA)
RNA: AGUGAUGUAUGGCGGUUUGUCACUUAAAAUCAGGAUAUAUAAACAAAUAGAAGGGAUGGCGGAGUGAUGUUCCGCCGGCCGCCAU
B18: Eterna 6429368 (Inverted Exclusion NG 2) (ssRNA)
RNA: AUGUCUUAGUAGAAGGGACAUCGGCUGGUAAGCAUCAUCUCCUUCUCACAUGAGGAUCACCCAUGUCAGGAUAUACUAAGAUAC
B19: Eterna 7690487 (Same State - Theophylline B) (ssRNA)
RNA: UGUCAUUGGUCUGAUACCAGUUAGACCGAUAGGUCAAAACUGGAGUGAUGUUCCCAAAAUAACCCUUGGCAGCAGACCGAUGACU
B20: Eterna 7726887 (Same State - Arginine A) (ssRNA)
RNA: AAUACCUGAGUGAUGUUCAGGGAAUCAGAAGGAGCGUCAAUUAUGACAGGUAGGUCGCUGAAGACAUGUGUGUAUACACAUGUCC
B21: Eterna 6079023 (Exclusion 4) (ssRNA)
RNA: UUCACGUCAGGAUAUCCAUAUUUCCGAAAUAACGGUACUUUGGAGAAGGGACAUGAGGAUCACCCAUGUCCUCG
B22: Eterna 6430991 (Inverted Small Loop Exclusion NG 1) (ssRNA)
RNA: CCUCGCUGUUAGAAGGCACCUUCGGCUUUGGCUUUUGGAGUUGGGCGAUGGUGAGGAUAUAACAUGAGGAUCACCCAUGUUCAA
B23: Eterna 6420697 (Small Loop Exclusion NG 3) (ssRNA)
RNA: AUCGUUGACUGGACGAGAAUAGGGCAGGAUAUACAUGAGGAUCACCCAUGUGAAGCACGAAAGAGGUAGAAGGGCCCACGUCAU
B24: Eterna 7716236 (Same State - Tryptophan B) (ssRNA)
RNA: GCGCGGCAGGCGGCCGCCACUCUGACGAGCCACAGUGAUGUUGUGGUCGGAGAAACGUCUUCAUAGAGGACCGGGUUUGUUGUUC
B25: Eterna 9759 (Exclusion 4) (ssRNA)
RNA: GUCGAGUGAGGAUAUGGUGAGUAGUGCCUGAGCGCUGCUCACCAGAAGGCACAUGAGGAUCACCCAUGUAUAGC
B26: Eterna 7710140 (Exclusion - Tryptophan A) (ssRNA)
RNA: AGCUCGCAAUCCUCAGCGUCAAAGACGCGUCGAGGACCGGUACGGCCGCCACUCGACAAGAGGAUCACCCUUGUCUAAGCGAGCA
B27: Eterna 6443759 (Same State NG 2) (ssRNA)
RNA: AUUAUAAUUGAAGGAUAUCUAUAUCCAACAUGAGGAUCACCCAUGUUGAGGAUCACCCAUGUAAAGGAGAAGGUUAAUUAUAAU
B28: Eterna 6056927 (Brourd's mod of Exclusion 4) (ssRNA)
RNA: GGUCCUUCUGUUAGGAUAUGCUAUGGGCUUCCGCAGUAGAAGGAACAUGAGGAUCACCCAUGUCCGAUGCCGUA
B29: Eterna 6430949 (Inverted Small Loop Exclusion NG 1) (ssRNA)
RNA: GGGACCUACGAGAAGGGCUACAUGAGGAUCACCCAUGUAAAUCUUCGGGUGGCAGGAUAUCGGCGGCUACAGGAGGGCCAGGUC
B30: Eterna 6049957 (Exclusion 6) (ssRNA)
RNA: CUGAGUAGUCAGGAUAUGUGGUACAAAAGUACUGCAGAAGGGAUUACAUGAGGAUCACCCAUGUUUUCUUCAUG
B31: Eterna 7682639 (Same State - Theophylline A) (ssRNA)
RNA: GAAGGUCAAAGACCUUCGUGCACAUCUGAUACCAGUCGCGAAAGCGACCCUUGGCAGCAGGGCAGUGAUGUUGCCAGUGCACAAA
B32: Eterna 7692300 (Exclusion - FMN B) (ssRNA)
RNA: UGGGCUGCCUGAGGAUAUAGAGACGAGUGAUGUUCGUGGAUAAGAGCCAGUGAUGUUGGGUUAUUUCUAGAAGGCGGGCGAACUU
B33: Eterna 7730362 (Exclusion - Arginine B) (ssRNA)
RNA: GGACUAACCAGAAGGAGCGGCGCGCAGAAACUGCUAAUUCCUCCGCACGAGGAUCACCCGUGUCAGGUAGGUCGCUGGUUAGUCG
B34: Eterna 7652494 (Same State - Tryptophan B) (ssRNA)
RNA: AGUAGACACGCGGCCGCCACUUGAGGAUCACCCAGGUGGUGUGUACUUGAAAACAAGUGCACAUCAAGGACCGGGCGUGUCUACA
B35: Eterna 7753129 (Same State - Arginine B) (ssRNA)
RNA: GGGUUGAACUGAAGGAGCGAGAAAUAGAAAGUAAGAAGAUAAGCUAGUGAUGUUAGAAAUUCUCAGGUAGGUCGCAGUAAGAAUU
B36: Eterna 6084857 (Exclusion 6) (ssRNA)
RNA: UCAAAUACUGAGGAUAUAACGACUGAAUCCGCGUUAGAAGGUAGUACAUGAGGAUCACCCAUGUCAACCAGAGG
B37: Eterna 6411926 (Small Loop Same State NG 1) (ssRNA)
RNA: GUAUUUAGAUAAGGAUAUAAGUCUAUGACAUGAGGAUCACCCAUGUGUGUCUUAGAAGGUAUUUGGGUAAUAUUGUUACAGUAA
B38: Eterna 6389671 (Inverted Exclusion NG 2) (ssRNA)
RNA: ACUUGUAAGUAGAAGGUAGUCAUUAUAUUAAUCAUGUAAACAUGAGGAUCACCCAUGUAGAGUACUAAGGAUAUACAUCGAUAG
B39: Eterna 7720377 (Same State - Arginine B) (ssRNA)
RNA: GCCUAGCAGGGAAGGAGCGGCAUAAGCAUAGAUAAUAUGCAGUUAGUGAUGUUAAUACUAUGCCAGGUAGGUCGCCCUGCUAGGC

The target of this data set is MS2 coat protein, dlFG mutant (Escherichia phage MS2, UniProt P03612, del68-81insG). The data set is described as follows: 4 mM Mg2+; no ligand; RNA-MaP array; 100 mM Tris-HCl pH 7.5, 80 mM KCl, 4 mM MgCl2, 0.1 mg/mL BSA, 1 mM DTT, 0.01 mg/mL yeast tRNA, 0.01% Tween-20; protein 1.5 nM to 3 uM; 37 C (Table S3). The settings on record: chain copies: 2; label: tethered by stalled RNA polymerase.
As for B1, the Kd was found to be 13.2 nM.
Consider B2, for which the Kd was > 3000 nM.
With B3, the Kd was > 3000 nM.
Regarding B4, the Kd is 483 nM. That is a sub-micromolar value.
For B5 the value was > 3000 nM; for B6, > 3000 nM; for B7, > 3000 nM.
B8 showed an equilibrium dissociation constant (Kd) of 563 nM.
For B9, binding was characterised by a dissociation constant (Kd) of 36.1 nM.
In the case of B10 it was > 3000 nM; in that of B11, > 3000 nM.
Turning to B12, binding was characterised by a dissociation constant (Kd) of 7.13 nM. In other words, the single-digit nanomolar range.
B13: binding was characterised by a dissociation constant (Kd) of 11.3 nM.
B14 gave an equilibrium dissociation constant (Kd) of 4.44 nM. Compared with the last molecule, the Kd is about 2.5-fold lower.
For the molecule B15, the Kd was 32.4 nM. Compared with the last molecule, the Kd is about 7.3-fold higher.
The molecule B16 yielded a Kd of 4.99 nM.
Take B17: the Kd is > 3000 nM.
In the case of B18 it was 12.8 nM; in that of B19, > 3000 nM; in that of B20, > 3000 nM.
In the case of B21 it was 17.9 nM.
Regarding B22, the affinity, expressed as Kd, was 9.79 nM. Against the preceding molecule, the Kd is about 1.8-fold lower.
In the case of B23 it was 16.1 nM; in that of B24, > 3000 nM; in that of B25, 16.7 nM.
In turn, B26 yielded a Kd of 330 nM.
B27 came in with an equilibrium dissociation constant (Kd) of 101 nM. Compared with the last molecule, the Kd is about 3.3-fold lower.
In the case of B28 it was 67.5 nM.
For the molecule B29, the Kd is 8.57 nM. Against the preceding molecule, the Kd is about 7.9-fold lower.
The molecule B30 gave a Kd of 52 nM. This Kd is about 6.1-fold higher than that of the molecule before.
In the case of B31 it was > 3000 nM; in that of B32, > 3000 nM; in that of B33, 10 nM.
B34 gave a Kd of 12.7 nM.
With B35, the Kd was > 3000 nM.
B36 showed a Kd of 17.2 nM.
As to B37, binding was put at a Kd of 44.2 nM. Against the preceding molecule, the Kd is about 2.6-fold higher.
B38 registered a Kd of 15.2 nM. Compared with the last molecule, the Kd is about 2.9-fold lower.
In the case of B39, the Kd was > 3000 nM.

Usually Kd stands for the constant that tells how readily two partners part at equilibrium. Higher therefore signals a looser complex.
